According to doi:10.1101/2020.05.14.095364 (bioRxiv, 2020):

B1: GFP-tagged hZO-1 (residues 1619-1748), isolated ZU5 fragment (domain or fragment, human, UniProt Q07157 1619-1748, looked up)
chain: SAVEEDEDEDGHTVVATARGIFNSNGGVLSSIETGVSIIIPQGAIPEGVEQEIYFKVCRDNSILPPLDKEKGETLLSPLVMCGPHGLKFLKPVELRLPHCDPKTWQNKCLPGDPNYLVGANCVSVLIDHF
B2: GST-CGN(1-70) (domain or fragment, canine, UniProt A7YH32 1-70, looked up)
chain: MEQASTMAEPRGPVDHGVQIRFITEPVGNAEMDTLRRGGRRPAKDARANTYGVAVRVQGIAGQPFVVLNS

Legend:
GST-CGN(1-70) = target: B2; test: pull-down
[1] = target: B1; test: quantitative GST-pulldown supernatant depletion assay

| fold binding against the other ZO-1 fragments (GST-CGN(1-70)) [fold] | Kd [1] [nM] | Binder |
| --- | --- | --- |
| > 4 |  | B1 |
|  | 40.4 | B2 |
